Results taken from patent publication US20250215467A1, “L-THREONINE TRANSALDOLASES AND USES THEREOF” (University of Delaware, priority 2022, published 2025).

Legend:
[1] = TTA-ADH coupled assay at different L-Thr concentrations (apparent L-Thr KM and kcat); type: biochemical
Experimental: (§1) High-throughput screening of purified TTAs was performed with a TTA-ADH coupled assay using purified TTA and commercially available alcohol dehydrogenase from S. cerevisiae purchased from MilliporeSigma. Aldehyde stocks were prepared in 50-100 mM solutions in DMSO or acetonitrile. Reaction mixtures were prepared in a 96-well plate with 100 μL of 100 mM phosphate buffer pH 7.5, 0.5 mM NADH, 0.4 mM PLP, 15 mM MgCl2, and 100 mM L-Thr with the addition of 0.25 mM to 1 mM aldehyde depending on the background absorbance at 340 nm (Table 4), 10 U ScADH, and 0.25 μM purified TTA unless otherwise specified. Reactions were initiated with the addition of enzyme. […] The following controls were included for every assay: reaction mixture without aldehyde, without TTA, and without enzyme (TTA or ADH). Rates were calculated by identifying the linear region at the beginning of the kinetic run and converting the depletion in absorbance to the depletion of mM NADH using an NADH standard curve.
We next sought to determine the affinity of these enzymes for L-Thr, which we obtained by performing the TTA-ADH coupled assay at different L-Thr concentrations (FIG. 16b). […] Two differences between our assays were the substrate, phenylacetaldehyde (14) instead of 4-nitrophenylacetylaldehyde (15), and the assay format, ADH coupling rather than a discontinuous HPLC assay. Because a live cellular environment would also contain alcohol dehydrogenases for reduction of acetaldehyde, it is possible that the KM values that we are measuring using the TTA-ADH coupled assay may be more realistic for our envisioned applications.

[2] = TTA-ADH coupled assay, substrate scope of TTAs on aromatic aldehydes; type: biochemical
Experimental: as §1
We specifically selected substrates with ring substituents with different electron withdrawing properties (1, 3, 6, 7, 8), substituent size (12), and aldehyde chain length (15) to compare the activity of the putative TTAs to ObiH. We were also encouraged by the activity of PbTTA and KaTTA on vanillin and protocatechualdehyde which are substrates that would form products like commercially available therapeutic, Droxidopa (FIG. 18).
To explore the possibility that DbTTA and TmTTA are TTAs active on other related aldehydes, we sought to examine their activity with L-Thr and aldehyde substrates with different ring substituent position (2), bulkier, hydrophobic chemistry (10), and aldehyde chain length (14) using the TTA-ADH coupled assay.

E. coli RARE strain = assay: β-OH-nsAA biosynthesis during aerobic fermentation in E. coli RARE strain; type: cell-based, Escherichia coli; settings: 1 mM 3, 20 h
Experimental: (§2) Metabolites of interest were quantified via high-performance liquid chromatography (HPLC) using an Agilent 1260 Infinity model equipped with a Zorbax Eclipse Plus-C18 column. To quantify aldehyde and β-OH-nsAAs, an initial mobile phase of solvent A/B=95/5 was used (solvent A, water+0.1% TFA; solvent B, acetonitrile+0.1% TFA) and maintained for 5 min. A gradient elution was performed (A/B) as follows: gradient from 95/5 to 50/50 for 5-12 min, gradient from 50/50 to 0/100 for 12-13 min, and gradient from 0/100 to 95/5 for 13-14 min. A flow rate of 1 mL min-1 was maintained, and absorption was monitored at 210, 250 and 280 nm.
For screening TTA activity in aerobically growing cells, we inoculated strains transformed with plasmids expressing TTAs into 300 μL volumes of MOPS EZ Rich media in a 96-deep-well plate with appropriate antibiotic added to maintain plasmids (50 μg/mL kanamycin (Kan)). Cultures were incubated at 37° C. with shaking at 1000 RPM and an orbital radius of 1.25 mm until an OD600 of 0.5-0.8 was reached. OD600 was measured using a SPECTRAMAX® i3× plate reader. At this point, the TTAs were induced with addition of 0.2 nM aTc for TTA expression. Then, 2 h following induction of the TTAs, 1 mM aldehyde was added to the culture. Cultures were then incubated over 20 h at 30° C. with metabolite concentration measured via supernatant sampling and submission to HPLC. […]

[3] = In vitro CAR-TTA coupled assay with HPLC analysis; type: biochemical; settings: CAR plus 2 μM PbTTA, 100 mM L-Thr, 20 h
Experimental: In vitro CAR activity assays were performed as previously reported (Gopal et al. biorxiv, 2022) using 2 mM NADPH and 2 mM ATP, 20 mM MgCl2, and 0.75 μM CAR and E. coli pyrophosphatase. For in vitro coupling with the CAR and TTA, the same in vitro CAR assay was performed with the addition of 2 μM TTA, 0.4 mM PLP, and 100 mM L-Thr; however, rather than monitoring the reaction with the plate reader, the plate was left shaking at 1000 RPM with an orbital radius of 1.25 mm at 30° C. overnight. The reaction was then quenched after 20 h with 100 μL of 3:1 methanol:2 M HCl. The supernatant was then separated from the protein precipitate using centrifugation and analyzed via HPLC.
as §2, with “nm. […]” for “nm.”

B1: PbTTA: L-threonine transaldolase, SEQ ID NO: 16, Parachlamydiales bacterium, MBN2478762.1 (protein, listed as Parachlamydiales bacterium)
chain: METSLKDFETILHLINKEEIDSNDTIHMTANENIMSKLSKHYLKSTLSYRYHVGMFDDQKNLTVSRSCLIKNSLMLRCLSPIFLLEQQAREYVKKMFFAEYADFRPLSGMHTVFCILSTLTKPNDRVYVFTTESVGHAATVSLLKSLGRKVSFIPFCEKKLDIDLEKLSKQILIEKPNAILFDFGTPFYPLPIREIREIVGNDVKMIYDASHVLGLIAGGQFQNPLLEGCDVLIGNTHKTFPGPQKGMILYKNKSLGKEIATEIFKSAISAQHTHHAIALYVTIIEMYIHGKEYANQIIKNNHALSQALINEGFKIFKRKNQFSLSHMIAITGDFPIDHHVACADLHNSNISTNSRILYDFPAVRIGVQEVTRKGMKEKDMVQLAKFFKEIILDRKNISSKIKEFNNKFNSIEYSLDEIYEKLF
- Km ([1]; apparent, phenylacetaldehyde (14) as aldehyde, ADH coupling, non-linear regression): 10.9 mM
- L-Thr kcat compared with ObiH ([1]; phenylacetaldehyde as the aldehyde substrate): higher measured L-Thr kcat values than ObiH
- activity on vanillin and protocatechualdehyde ([2]; TTA-ADH coupled assay): activity
- activity on a set of aromatic aldehyde substrates (substrate scope) ([2]; substrates 1, 3, 6, 7, 8, 12, 15): high activity on a diverse array of substrates
- β-OH-nsAA titer (E. coli RARE strain; 100 mM L-Thr): 0.61 ± 0.04 mM
- β-OH-nsAA titer (E. coli RARE strain; natural L-Thr levels): 0.13 ± 0.01 mM
- β-OH-nsAA production from 4-azido-benzoic acid, in vitro CAR-TTA coupling [3]: successfully produced a β-OH-nsAA product
